Five molecules from patent US20130129730A1 (Amgen, published 2013) can be followed below.

The experiment concerns the target T1, human EpCAM (human, UniProt P16422 24-314).
T1 construct: whole, on cells; also called Epithelial cell adhesion molecule; CD326
T1 sequence (looked up): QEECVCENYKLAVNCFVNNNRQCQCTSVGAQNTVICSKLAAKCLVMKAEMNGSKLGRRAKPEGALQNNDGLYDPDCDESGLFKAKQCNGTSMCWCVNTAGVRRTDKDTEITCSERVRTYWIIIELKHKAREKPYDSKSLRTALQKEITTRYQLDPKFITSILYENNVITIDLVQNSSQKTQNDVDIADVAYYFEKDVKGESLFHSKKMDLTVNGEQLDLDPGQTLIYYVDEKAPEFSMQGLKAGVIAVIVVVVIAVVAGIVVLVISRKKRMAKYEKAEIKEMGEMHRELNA
Briefly: flow cytometry, scFv periplasmic preparation on human EpCAM transfected CHO cells. The method, then:
Periplasmic preparations of E. coli clones producing the scFv molecules EpCAM 4-7, PM74-G3, PM52-H3, PM52-C3, PM75-A10 and PM91-B6 are used to examine specific binding to human PSMA or human EpCAM transfected cell lines. As negative control untransfected CHO cell are used.
For flow cytometry 2,5×10⁵ cells are incubated with 50 μl of scFv periplasmic preparation. The binding of scFv to the cells is detected with an anti-His antibody (Penta-His Antibody, BSA free, Qiagen GmbH, Hilden, FRG) at 2 μg/ml in 50 μl PBS with 2% FCS. As a second step reagent a R-Phycoerythrin-conjugated affinity purified F(ab′)2 fragment, goat anti-mouse IgG (Fc-gamma fragment specific), diluted 1:100 in 50 μl PBS with 2% FCS (Dianova, Hamburg, FRG) is used. The samples are measured on a FACSscan (BD biosciences, Heidelberg, FRG).
Flow cytometry is performed on a FACS-Calibur apparatus; the CellQuest software is used to acquire and analyze the data (Becton Dickinson biosciences, Heidelberg). FACS staining and measuring of the fluorescence intensity are performed as described in Current Protocols in Immunology (Coligan, Kruisbeek, Margulies, Shevach and Strober, Wiley-Interscience, 2002).

B1: scFv PM74-G3 (scFv)
scFv: QVQLVQSGAEVKKPGASVKLSCKASGYTFTYFDINWVRQAPEQGLEWMGGISPGDGNTNYNENFKGRVTMTIDTSSSTAYIELSRLTSDDTAVYYCARDGNFPYYAMDSWGQGTTVTVSSGGGGSGGGGSGGGGSDVVMTQTPLSLPVSLGDQASISCRSSQSLVHSNGNTYLHWYLQKPGQSPKLLIYKVSNRFSGVPDRFSGSGSGTDFTLKISRVEAEDLGVYFCSQSTHVPYTFGGGTKLEIKDYKDDDDK
notes: Tested as periplasmic preparation from E. coli; also called PM74G3-VH-VL; not shown: His6-tag
With B1, the binding result is reported as “no binding”.

B2: scFv PM52-C3 (scFv)
scFv: QVQLVQSGAEVKKPGASVKLSCKASGYTFTYFDINWVRQTPEQGLEWMGGISPGDGNTNYNENFKGRVTMTRDTSSSTAYMELSRLRSDDTAVYYCARDGNFPYYAMDSWGQGTTVTVSSGGGGSGGGGSGGGGSDVVMTQSPLSLPVTLGEPASISCRSSQSLVYSNGNTYLHWYQQKPGQSPRLLIYKVSNRFSGVPDRFSGSGSGTDFTLKISRVEAEDVGVYFCSQSTHVPYTFGQGTKLEIKDYKDDDDK
notes: Tested as periplasmic preparation from E. coli; also called PM52C3-VH-VL; not shown: His6-tag
As to B2, the binding result is on record as “no binding”.

B3: scFv PM52-H3 (scFv)
scFv: QVQLVQSGAEVKKPGASVKLSCKASGYTFTYFDINWVRQTPEQGLEWMGGISPGDGNTNYNENFKGRVTMTRDTSKSTAYMELSRLRSDDTAVYYCARDGNFPYYAMDSWGQGTTVTVSSGGGGSGGGGSGGGGSDVVMTQSPLSLPVTLGEPASISCRSSQSLVYSNGNTYLHWYQQKPGQSPRLLIYKVSNRFSGVPDRFSGSGSGTDFTLKISRVEAEDVGVYFCSQSTHVPYTFGQGTKLEIKDYKDDDDK
notes: Tested as periplasmic preparation from E. coli; also called PM52H3-VH-VL; not shown: His6-tag
In the case of B3, the binding result is given as “no binding”.

B4: scFv PM75-A10 (scFv)
scFv: QVQLVQSGAEVKKPGASVKLSCKASGYTFTYFDINWVRQTPEQGLEWMGGISPGDGNTNYNENFKGRVTMTRDTSSSTAYMELSRLRSDDTAVYYCARDGNFPYYAMVNWGQGTTVTVSSGGGGSGGGGSGGGGSDVVMTQSPLSLPVTLGEPASISCRSSQSLVYSNGNTYLHWYQQKPGQSPRLLIYKVSNRFSGVPDRFSGSGSGTDFTLKISRVEAEDVGVYFCSQSTHVPYTFGQGTKLEIKDYKDDDDK
notes: Tested as periplasmic preparation from E. coli; also called PM75A10-VH-VL; not shown: His6-tag
For B4, the binding result is “no binding”.

B5: scFv PM91-B6 (scFv)
scFv: QVQLVQSGAEVKKPGASVKLSCKASGYTFTYFDINWVRQTPEQGLEWMGGISPGDGNTNYNENFKGRVTMTRDTSSSTAYMELSRLRSDDTAVYYCARDGNFPYYALTNWGQGTTVTVSSGGGGSGGGGSGGGGSDVVMTQSPLSLPVTLGEPASISCRSSQSLVYSNGNTYLHWYQQKPGQSPRLLIYKVSNRFSGVPDRFSGSGSGTDFTLKISRVEAEDVGVYFCSQSTHVPYTFGQGTKLEIKDYKDDDDK
notes: Tested as periplasmic preparation from E. coli; also called PM91B6-VH-VL; not shown: His6-tag
Take B5: the binding result is reported as “no binding”.
